Here are results for two molecules from publication PMC10123100, “Single-molecule visualization of stalled replication-fork rescue by the Escherichia coli Rep helicase”.

Series [1] deals with T1, Rep WT (Escherichia coli, UniProt P09980 1-673). Kind of series: SPR; no nucleotide, 5 mM Mg2+; kon 1.22e7 M-1 s-1, koff 5.91e-3 s-1; SPR: 25 mM Tris-HCl pH 7.6, 50 mM NaCl, 5 mM MgCl2, 0.25 mM DTT, 0.2 mM EDTA, 0.005% P20, 20 C; single-molecule: 25 mM Tris-HCl pH 7.9, 10 mM Mg acetate, 50 mM. The note with it: protein: recombinant; chain copies: 2; single strand. In general terms: Surface plasmon resonance follows binding to a sensor surface in real time, without labels.

Series [2] concerns the target T1, Rep WT. Nature of the series: SPR; no nucleotide, 5 mM Mg2+; 20 nM Rep; kon 1.03e6 M-1 s-1, koff 2.15e-4 s-1; SPR: 25 mM Tris-HCl pH 7.6, 50 mM NaCl, 5 mM MgCl2, 0.25 mM DTT, 0.2 mM EDTA, 0.005% P20, 20 C; single-molecule: 25 mM Tris-HCl pH 7.9, 10 mM Mg acetate, 50 mM. The note with it: protein: recombinant; chain copies: 2; single strand.
The target of the next series is Rep K28A (Escherichia coli, UniProt P09980 1-673, K28A). Kind of series: SPR; 200 uM ATP, dissociation not stimulated; SPR: 25 mM Tris-HCl pH 7.6, 50 mM NaCl, 5 mM MgCl2, 0.25 mM DTT, 0.2 mM EDTA, 0.005% P20, 20 C; single-molecule: 25 mM Tris-HCl pH 7.9, 10 mM Mg acetate, 50 mM. Particulars: protein: recombinant; tags: His6; chain copies: 2; single strand.

In the case of TTTTTTTTTTTTTTT (ssDNA, 3'-biotin) [3'-bio-dT15], the Kd (usually a measure of binding affinity in units of concentration) with Rep WT [1] is 0.5 nM. Consider TTTTTTTTTTTTTTTTTTTTTTTTTTTTTTTTTTT (ssDNA, 3'-biotin) [3'-bio-dT35], for which the Kd with Rep WT [2] worked out at 0.2 nM. In the series with Rep K28A, the binding result was “binds”.
